± gives the uncertainty stated by the source.
Test: self-splicing fitness, log relative to wild type (ln ratio); higher = more splicing; Tetrahymena group I intron in knt gene, E. coli kanamycin selection, DiMSum; sequences stand for … in CUCUCU…GGAGGGAAAAGUUAUCAGGCAUGCACCUGGUAGCUAGUCUUUAAACCAAUAGAUUGCAUCGGUUUAAAAGGCAAGACCGUCAAAUUGCGGGAAAGGGGUCAACAGCCGUUCAGUACCAAGUCUCAGGGGAAACUUUGAGAUGGCCUUGCAAAGGGUAUGGUAAUAAGCUGACGGACAUGGUCCUAACCACGCAGCCAAGUCCUAAGUCAACAGAUCUUCUGUUGAUAUGGAUGCAGUUCACAGACUAAAUGUCGGUCGGGGAAGAUGUAUUCUUCUCAUAAGAUAUAGUCGGACCUCUCCUUAAUGGGAGCUAGCGGAUGAAGUGAUGCAACACUGGAGCCGCUGGGAACUAAUUUGUAUGCGAAAGUAUAUUGAUUAGUUUUGGAGUACUCGUGGUCG
Summary of the method: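 Library with all eight P1ex-region intron nucleotides randomised, intron inside the knt kanamycin-resistance gene on pET-22b(+), in E. coli BL21(DE3). Cells grew overnight at 37°C or 30°C on LB agar with or without 25 μg/mL kanamycin (plus 100 μg/mL carbenicillin, 50 μM IPTG, 0.2% rhamnose), in six replicate transformations. Pooled colonies were amplicon-sequenced on Illumina HiSeq 2500. DiMSum fitness is the error-weighted combination of wild-type-normalised replicate fold changes, kanamycin versus none.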

Sequence	self-splicing fitness (ln) (30 °C)	self-splicing fitness (ln) (37 °C)
AUUCAGCAAUAUUACGAUUG	-1.88 ± 0.16	-1.05 ± 0.2
AUUCAGCAAUAUUACGAUUU	0.203 ± 0.088	0.898 ± 0.11
AUUCAGCAAUAUUACGCAAU	-2.4 ± 0.23	-0.772 ± 0.22
AUUCAGCAAUAUUACGCAUG	-1.3 ± 0.082	-0.553 ± 0.11
AUUCAGCAAUAUUACGCCCC	0.0239 ± 0.13	0.082 ± 0.23
AUUCAGCAAUAUUACGCCGU	-0.349 ± 0.15	0.177 ± 0.14
AUUCAGCAAUAUUACGCGAA	-1.9 ± 0.15	-1.73 ± 0.17
AUUCAGCAAUAUUACGCGUC	-1.11 ± 0.17	-0.615 ± 0.21
AUUCAGCAAUAUUACGCUCA	-0.0142 ± 0.092	-0.0382 ± 0.14
AUUCAGCAAUAUUACGGACU	0.0759 ± 0.063	0.414 ± 0.083
AUUCAGCAAUAUUACGGCAU	-0.321 ± 0.065	1.01 ± 0.1
AUUCAGCAAUAUUACGGUCU	-0.633 ± 0.073	0.126 ± 0.093
AUUCAGCAAUAUUACGGUUC	-1.64 ± 0.13	-0.855 ± 0.16
AUUCAGCAAUAUUACGUAAC	-0.841 ± 0.17	1.08 ± 0.19
AUUCAGCAAUAUUACGUAGU	-0.994 ± 0.047	-0.0257 ± 0.069
AUUCAGCAAUAUUACGUCAU	-0.863 ± 0.059	0.0811 ± 0.071
AUUCAGCAAUAUUACGUGAA	-0.88 ± 0.065	-0.398 ± 0.084
AUUCAGCAAUAUUACGUGCU	-2.95 ± 0.2	-1.81 ± 0.3
AUUCAGCAAUAUUACGUUAG	-3.78 ± 0.15	-1.52 ± 0.1
AUUGAGCAAUAUUACGAAUG	-2.9 ± 0.21	-3.15 ± 0.3

Sequence	self-splicing fitness (ln) (30 °C)	self-splicing fitness (ln) (37 °C)
AUUGAGCAAUAUUACGACGC	-2.27 ± 0.22	-2.35 ± 0.28
AUUGAGCAAUAUUACGAGCA	-3.01 ± 0.47	-1.93 ± 0.42
AUUGAGCAAUAUUACGAGGC	-3.05 ± 0.36	-2.78 ± 0.4
AUUGAGCAAUAUUACGAUAC	-3.01 ± 0.42	-1.65 ± 0.34
AUUGAGCAAUAUUACGAUUC	-2.51 ± 0.22	-2.86 ± 0.47
AUUGAGCAAUAUUACGCAAA	-3.02 ± 0.29	–
AUUGAGCAAUAUUACGCCCG	-3.02 ± 0.47	–
AUUGAGCAAUAUUACGCCGG	-2.87 ± 0.33	-2.53 ± 0.48
AUUGAGCAAUAUUACGCUCC	-1.83 ± 0.44	–
AUUGAGCAAUAUUACGGACU	-2.64 ± 0.21	-0.639 ± 0.14
AUUGAGCAAUAUUACGGAUC	-4.03 ± 0.47	-2.65 ± 0.38
AUUGAGCAAUAUUACGGCCC	–	0.679 ± 0.5
AUUGAGCAAUAUUACGGCGC	-0.865 ± 0.23	-0.384 ± 0.17
AUUGAGCAAUAUUACGGCUU	-2.62 ± 0.21	-0.8 ± 0.17
AUUGAGCAAUAUUACGUAUC	-1.48 ± 0.36	–
AUUGAGCAAUAUUACGUAUU	-4.59 ± 0.38	-1.25 ± 0.16
AUUGAGCAAUAUUACGUCAC	-3.9 ± 0.34	-2.34 ± 0.39
AUUGAGCAAUAUUACGUCCG	-2.58 ± 0.16	-2.91 ± 0.48
AUUGAGCAAUAUUACGUCGC	–	-1.8 ± 0.46
AUUGAGCAAUAUUACGUCGU	-1.59 ± 0.15	-1.69 ± 0.17

From the supplement of paper PMC7877785
